From patent publication US20240398963A1 (priority 2021, published 2024)

Assay type: physicochemical
Conditions: 10 mM PBS buffer (pH=7.4), 37° C., 100 rpm shaker; free drug by HPLC, average release per day
Protocol: The drug release and stability experiments were run using the test compounds. About 2.5±1.0 mg/mL (with regard to conjugate) solution of each test compound was prepared with 10 mM PBS buffer (pH=7.4) in Millipore Amicon® Ultra-0.5 ml 30 k Ultrafiltration centrifuge tube. The solution was kept swelling for 1 h at room temperature and then placed in a shaker at 100 rpm, 37° C. for continuous experiment. At the same time point of each day, samples were centrifuged at 10000 rpm for 1 h. The aliquot was transferred to HPLC vial for analysis. An 0.4 mL of 10 mM PBS buffer was added into the centrifuge tube and continue the experiment.
For the HPLC analysis at each time point, the peak areas of all relevant peaks from the chromatograms were retrieved and the concentration of free drug was calculated. Average release of free drug was calculated based on the sum of free drug and numbers of experiment days. The computing equation is as below.
The sample degradation rate was calculated based on the concentration and degree of substitution (NMR) for conjugated drug with regard to the initial starting point of the experiment (at t=0). The computing equation is as below.

Row | Substance | Release rate [%/day]
1 | Conjugate of CS (Chondroitin sulfate) and 2-aminopropyl (2-((6αS,6βR,7S,8αS,8βS,11αR,12αS,12βS)-6β-fluoro-7-hydroxy-6α,8α,10,10-tetramethyl-4-oxo-1,2,4,6α,6β,7,8,8α,11α,12,12α,12β-dodecahydro-8βH-naphtho[2′,1′:4,5]indeno[1,2-d][1,3]dioxol-8β-yl)-2-oxoethyl) carbonate [Example 53] | 1.49
2 | Conjugate of CS and 2-(2-(2-(2-aminoethoxy)ethoxy)ethoxy)ethyl (2-((6αS,6βR,7S,8αS,8βS,11αR,12αS,12βS)-6β-fluoro-7-hydroxy-6α,8α,10,10-tetramethyl-4-oxo-1,2,4,6α,6β,7,8,8α,11α,12,12α,12β-dodecahydro-8βH-naphtho[2′,1′:4,5]indeno[1,2-d][1,3]dioxol-8β-yl)-2-oxoethyl) carbonate [Example 55] | 1.20
3 | Conjugate of CS and 2-((6S,8S,9S,10R,11S,13S,14S,17R)-11,17-dihydroxy-6,10,13-trimethyl-3-oxo-6,7,8,9,10,11,12,13,14,15,16,17-dodecahydro-3H-cyclopenta[a]phenanthren-17-yl)-2-oxoethyl 4-aminobutanoate [Example 43] | 1.07
4 | Conjugate of CS and 2-((6αS,6βR,7S,8αS,8βS,11αR,12αS,12βS)-6β-fluoro-7-hydroxy-6α,8α,10,10-tetramethyl-4-oxo-1,2,4,6α,6β,7,8,8α,11α,12,12α,12β-dodecahydro-8βH-naphtho[2′,1′:4,5]indeno[1,2-d][1,3]dioxol-8β-yl)-2-oxoethyl 2,5-diazabicyclo[2.2.1]heptane-2-carboxylate [Example 59] | 0.02
5 | Conjugate of CS and 2-((6αS,6βR,7S,8αS,8βS,11αR,12αS,12βS)-6β-fluoro-7-hydroxy-6α,8α,10,10-tetramethyl-4-oxo-1,2,4,6α,6β,7,8,8α,11α,12,12α,12β-dodecahydro-8βH-naphtho[2′,1′:4,5]indeno[1,2-d][1,3]dioxol-8β-yl)-2-oxoethyl 7-azaspiro[3.5]nonane-2-carboxylate [Example 49] | 0.42
6 | Conjugate of CS and 2-((6αS,6βR,7S,8αS,8βS,11αR,12αS,12βS)-6β-fluoro-7-hydroxy-6α,8α,10,10-tetramethyl-4-oxo-1,2,4,6α,6β,7,8,8α,11α,12,12α,12β-dodecahydro-8βH-naphtho[2′,1′:4,5]indeno[1,2-d][1,3]dioxol-8β-yl)-2-oxoethyl 14-amino-3,6,9,12-tetraoxatetradecanoate [Example 51] | 7.21
7 | Conjugate of CS and 2-((6αS,6βR,7S,8αS,8βS,11αR,12αS,12βS)-6β-fluoro-7-hydroxy-6α,8α,10,10-tetramethyl-4-oxo-1,2,4,6α,6β,7,8,8α,11α,12,12α,12β-dodecahydro-8βH-naphtho[2′,1′:4,5]indeno[1,2-d][1,3]dioxol-8β-yl)-2-oxoethyl piperazine-1-carboxylate [Example 57] | 0.23
8 | Conjugate of CS and 2-((8S,9R,10S,11S,13S,14S,16R,17R)-9-fluoro-11,17-dihydroxy-10,13,16-trimethyl-3-oxo-6,7,8,9,10,11,12,13,14,15,16,17-dodecahydro-3H-cyclopenta[a]phenanthren-17-yl)-2-oxoethyl 4-aminobutanoate [Example 45] | 0.40
9 | Conjugate of CS and 2-((8S,9R,10S,11S,13S,14S,16S,17R)-9-fluoro-11,17-dihydroxy-10,13,16-trimethyl-3-oxo-6,7,8,9,10,11,12,13,14,15,16,17-dodecahydro-3H-cyclopenta[a]phenanthren-17-yl)-2-oxoethyl 4-aminobutanoate [Example 47] | 1.24
